In the Immune Epitope Database (IEDB) one finds Kd data, which are given here for 8 sequences.

One assay deals with HLA-A*01:01. Briefly: IEDB peptide-MHC binding, purified MHC/direct/fluorescence; filed as Kd, often an IC50 or EC50 that approximates it; ≥ and ≤ were set here for values at or beyond the usual limits of such assays.
Assay [1] addresses HLA-A*02:01. Described as above. The conditions noted are these: source organism: Pseudomonas putida.
In a further assay the target is HLA-A*03:01. The description is as above.
The target in a further assay is HLA-A*11:01. Described as above.
The target in a further assay is HLA-A*24:03. The description is as above. The settings on record: source organism: Pseudomonas putida.
Another assay deals with HLA-A*26:01. The assay is described as above. The settings on record: source organism: Pseudomonas putida.
For a further assay, the target named is HLA-A*31:01. The description is as above.
In the next assay the target is HLA-A*69:01. Described as above.
In a further assay the target is HLA-B*07:02. The description is as above.
Assay [2] addresses HLA-B*08:01. Described as above. The conditions noted are these: source organism: Pseudomonas putida.
Another assay has as its target HLA-B*15:01. The description is as above.
A further assay addresses HLA-B*27:05. Described as above.
A further assay has as its target HLA-B*40:01. Described as above.
The target of another assay is HLA-B*58:01. The description is as above.
Another assay addresses HLA-A*02:11. The assay can be described thus: IEDB peptide-MHC binding, purified MHC/competitive/fluorescence; filed as Kd, often an IC50 or EC50 that approximates it; ≥ and ≤ were set here for values at or beyond the usual limits of such assays. The conditions noted are these: source organism: Pseudomonas putida F1.
Assay [3] concerns the target HLA-A*02:01. The assay can be described thus: IEDB peptide-MHC binding, purified MHC/competitive/radioactivity; filed as Kd, often an IC50 or EC50 that approximates it; ≥ and ≤ were set here for values at or beyond the usual limits of such assays.
A further assay concerns the target HLA-A*02:17. The assay is described as above.
In the next assay the target is HLA-B*08:02. The assay can be described thus: IEDB peptide-MHC binding, purified MHC/direct/fluorescence; filed as Kd, often an IC50 or EC50 that approximates it; ≥ and ≤ were set here for values at or beyond the usual limits of such assays. The conditions noted are these: source organism: Mycobacterium tuberculosis CDC1551.
Another assay addresses HLA-B*15:09. Described as above. The conditions noted are these: source organism: Mycobacterium tuberculosis CDC1551.
For another assay, the target named is HLA-B*15:17. The assay is described as above. The settings on record: source organism: Mycobacterium tuberculosis.
For the next assay, the target named is HLA-B*18:01. Described as above. The conditions noted are these: source organism: Mycobacterium tuberculosis.
In the next assay the target is HLA-B*46:01. The assay is described as above. The conditions noted are these: source organism: Mycobacterium tuberculosis.
The next assay addresses HLA-B*48:01. Described as above. The conditions noted are these: source organism: Mycobacterium tuberculosis.
For the next assay, the target named is HLA-B*51:01. Described as above. The conditions noted are these: source organism: Mycobacterium tuberculosis.
In the next assay the target is HLA-B*57:01. The description is as above. The conditions noted are these: source organism: Mycobacterium tuberculosis.
For assay [4], the target named is HLA-A*02:01. The assay can be described thus: IEDB peptide-MHC binding, purified MHC/competitive/fluorescence; filed as Kd, often an IC50 or EC50 that approximates it; ≥ and ≤ were set here for values at or beyond the usual limits of such assays. The settings on record: source organism: Mycobacterium tuberculosis CDC1551.
Assay [5] concerns the target HLA-A*02:06. The assay is described as above. The settings on record: source organism: Mycobacterium tuberculosis CDC1551.
A further assay deals with HLA-A*30:01. Described as above. The conditions noted are these: source organism: Mycobacterium tuberculosis CDC1551.
For assay [6], the target named is HLA-B*08:01. Described as above. The settings on record: source organism: Mycobacterium tuberculosis CDC1551.
For assay [7], the target named is HLA-B*08:01. Briefly: IEDB peptide-MHC binding, purified MHC/competitive/radioactivity; filed as Kd, often an IC50 or EC50 that approximates it; ≥ and ≤ were set here for values at or beyond the usual limits of such assays. The conditions noted are these: source organism: Dengue virus 1 Brazil/97-11/1997.
A further assay deals with HLA-A*02:03. The assay is described as above.
Assay [8] has as its target HLA-A*02:06. The description is as above.
The mark [9] stands for this setting: source organism: Pseudomonas putida.
[10] abbreviates: source organism: Dengue virus 1 Singapore/S275/1990.
[11] abbreviates: source organism: Dengue virus 4 Philippines/H241/1956.
The mark [12] stands for this setting: source organism: Mycobacterium tuberculosis.
[13] abbreviates: source organism: Dengue virus 2 Jamaica/1409/1983.

In the case of VMTEGRHAV, the dissociation constant (Kd) with HLA-A*01:01 (setting [9]) was at least 20000 nM; with HLA-A*02:01 [1], 409 nM; in the assay with HLA-A*03:01 (setting [9]) it was at least 20000 nM; with HLA-A*11:01 (setting [9]), at least 20000 nM; with HLA-A*24:03, at least 20000 nM; in the assay with HLA-A*26:01, at least 20000 nM. Further, the Kd with HLA-A*31:01 (setting [9]) was 991 nM; with HLA-A*69:01 (setting [9]), 712 nM; with HLA-B*07:02 (setting [9]), 330 nM; with HLA-B*08:01 [2], 7120 nM; in the assay with HLA-B*15:01 (setting [9]), 3700 nM; with HLA-B*27:05 (setting [9]), at least 20000 nM. Further, the Kd in the assay with HLA-B*40:01 (setting [9]) is at least 20000 nM; with HLA-B*58:01 (setting [9]), at least 20000 nM; in the assay with HLA-A*02:11, at most 1 nM.

For the sequence RLITANPIV, the Kd in the assay with HLA-A*02:01 [3] (setting [10]) is 61.3 nM; with HLA-A*02:17 (setting [10]) it was 121 nM.

On to DLMEFIDGI, for which the Kd with HLA-A*02:01 [3] (setting [11]) was found to be 74.2 nM; with HLA-A*02:17 (setting [11]), 1970 nM.

ALRSRWRAL: the Kd with HLA-A*01:01 (setting [12]) was at least 20000 nM; with HLA-A*03:01 (setting [12]), at least 20000 nM; with HLA-A*11:01 (setting [12]) it was at least 20000 nM; with HLA-A*31:01 (setting [12]), at least 20000 nM; in the assay with HLA-A*69:01 (setting [12]) it was at least 20000 nM; with HLA-B*07:02 (setting [12]), 59.5 nM. Further, the Kd with HLA-B*08:02 was at least 20000 nM; with HLA-B*15:01 (setting [12]), 504 nM; with HLA-B*15:09, at least 20000 nM; in the assay with HLA-B*15:17, at least 20000 nM; with HLA-B*18:01, at least 20000 nM; in the assay with HLA-B*27:05 (setting [12]) it was at least 20000 nM. The Kd with HLA-B*40:01 (setting [12]), with HLA-B*46:01, with HLA-B*48:01, with HLA-B*51:01, in the assay with HLA-B*57:01 and with HLA-B*58:01 (setting [12]) was at least 20000 nM throughout. The Kd with HLA-A*02:01 [4] is at least 20000 nM; with HLA-A*02:06 [5], 556 nM; with HLA-A*30:01, 132 nM; in the assay with HLA-B*08:01 [6], 14 nM.

Turning to ILLMLVTPSM, the dissociation constant Kd with HLA-A*02:01 [3] (setting [10]) worked out at 102 nM; with HLA-A*02:17 (setting [10]), 1110 nM; with HLA-B*08:01 [7], 160 nM.

For GLYPLAIPV, the Kd came to 1.06 nM with HLA-A*02:01 [3] (setting [11]), 0.42 nM in the assay with HLA-A*02:03 (setting [11]), 125 nM in the assay with HLA-A*02:06 [8] (setting [11]) and 53.8 nM with HLA-A*02:17 (setting [11]).

Consider KLAEAIFKL, for which the Kd with HLA-A*02:03 (setting [13]) turned out to be 8.68 nM; with HLA-A*02:06 [8] (setting [13]), 14.8 nM; with HLA-A*02:17 (setting [13]) it was 19.1 nM.

With RLLTKPWDV, the Kd in the assay with HLA-A*02:01 [3] (setting [13]) came out at 27.6 nM; with HLA-A*02:17 (setting [13]), 1430 nM.

In general, Kd refers to the constant that tells how readily two partners part at equilibrium.
